From the supplement of paper PMC10567573

B1: ZNF207 (parent)
chain: CHICHKKLYTGPGLAIHCMQVHKE
B2: CDC25A (parent)
chain: TVAGKHQDLKYISPEIMASVLNGK

Variants of: B1
Test: protein stability index of a GFP-peptide fusion (GPS, HEK-293T) (PSI 1-6); higher = more stable
Details: c terminus: a fixed tail appended
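Further: lentivirally expressed fusions sorted by FACS into six bins by GFP to DsRed ratio, PSI derived from sequencing read proportions per bin multiplied by bin number.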

Protein stability index, by site and new letter:
H17: Y 2.67 | D 2.47 | I 2.08 | C 3.87 | E 3.36 | P 2.78 | L 1.87 | T 2.7 | V 3.01 | F 3.52 | G 2.82 | M 2.55 | Q 2.97 | W 3.87 | N 2.25 | A 2.15 | S 3.15 | K 2.19 | R 2.22
K7: V 4.09 | R 3.48 | H 3.25 | W 3.27 | S 3.66 | I 3.73 | N 4.21 | G 3.27 | L 4.3 | F 4.02 | C 3.63 | D 4.16 | Q 4.11 | P 2.55 | T 3.98 | M 3.86 | Y 4.2 | E 4.14 | A 3.92
Y9: K 3.29 | W 2.34 | H 3.62 | A 4.31 | Q 3.93 | V 3.19 | N 3.83 | E 4.6 | G 3.76 | L 3.97 | C 3.39 | I 2.72 | R 4.11 | M 4.14 | P 3.64 | D 4.9 | S 4.28 | T 3.27 | F 3.16
H2: K 2.91 | T 2.87 | I 2.46 | R 2.59 | P 2.9 | W 2.61 | C 2.45 | D 4.28 | A 2.71 | L 2.78 | Q 3.4 | V 2.44 | N 3.65 | M 2.49 | F 2.76 | G 3.31 | S 2.73 | Y 2.74 | E 3.07
L8: N 2.97 | C 3.16 | Q 2.93 | P 3.1 | D 3.37 | G 3.61 | T 3.02 | K 2.42 | F 2.44 | M 4.63 | W 2.66 | V 4.12 | E 3.96 | H 3.14 | R 1.37 | A 2.33 | S 2.57 | I 3.67 | Y 2.33
H5: M 3.33 | E 3.63 | L 3.01 | V 1.63 | R 2.96 | N 3.18 | Y 2.97 | F 3.26 | W 2.74 | K 2.55 | I 2.03 | P 2.39 | G 3.35 | T 2.48 | A 3.83 | S 2.83 | Q 2.79 | C 2.4 | D 3.49
C18: G 2.18 | F 2.21 | A 2.62 | E 3.57 | D 2.75
I3: D 2.24 | F 2.34 | W 2.73 | Q 2.44 | S 2.58 | R 2.52 | T 3.03 | H 3.67 | Y 3.43 | G 2.48 | E 2.37 | M 2.73 | K 3.1 | V 2.51 | P 1.99 | A 2.17 | L 3.09 | C 2.54 | N 2.19
L14: W 2.85 | T 3.6 | E 4.44 | A 3.96 | R 2.79 | Y 2.94 | C 3.34 | N 4.65 | K 3.1 | F 2.9 | D 4.56 | P 3.9 | V 3 | I 3.3 | M 3.45 | G 3.85 | Q 3.78 | S 3.22 | H 3.69
C4: Y 2.04 | T 1.5 | M 2.12 | R 1.94 | H 1.6 | P 2.5 | F 1.93 | E 1.07 | A 1.36 | Q 2.01 | K 1.15 | I 3.16 | W 1.88 | L 1.39 | S 1.38 | N 1.9 | G 1.7 | D 1.6
K6: S 3.54 | F 1.84 | V 3.41 | Q 4.09 | M 3.35 | W 2.17 | T 2.15 | G 3.03 | H 3.51 | E 4.41 | I 2.63 | N 3.25 | A 4.37 | D 3.28 | Y 2.72 | L 2.36 | P 2.12 | C 3.45 | R 3.97
G11: K 3.34 | Y 1.56 | C 2.31 | S 3.48 | V 2.32 | I 1.58 | R 3.53 | W 1.36 | E 4.53 | T 2.48 | N 3.59 | P 3.94 | M 2.05 | H 2.68 | Q 3.37 | L 2.63 | D 3.98 | A 2.67 | F 2.63
A15: G 4.44 | K 3.38 | H 2.99 | R 3.19 | D 4.37 | Q 3.7 | I 2.79 | E 3.55 | T 3.69 | Y 3.21 | N 3.7 | W 2.27 | P 3.24 | L 2.66 | F 2.91 | V 2.35 | C 4.64 | S 3.42 | M 3.35
T10: A 3.47 | C 2.92 | P 3.68 | R 2.52 | I 2.86 | F 2.4 | W 2.56 | V 3.5 | D 4.59 | G 3.06 | Y 2.6 | E 3.83 | N 3.58 | L 2.49 | S 3.31 | K 2.65 | H 2.68 | Q 3.8 | M 2.55
C1: G 2.07 | N 2.24 | K 2.16 | T 1.94 | M 2.03 | H 1.83 | Y 2.84 | A 2.02 | L 1.94 | D 2.78 | P 2.69 | S 2.58 | E 2.76 | R 3 | Q 1.8 | I 1.52
G13: P 2.43 | M 3.64 | V 2.54 | W 2.07 | C 3.65 | H 4.02 | I 2.3 | T 3.37 | D 4.82 | E 4.3 | L 2.9 | N 3.77 | K 3.15 | F 2.11 | S 3.83 | Y 2.12 | R 2.41 | Q 4.07 | A 4.96
P12: G 3.09 | E 4.48 | F 2.41 | W 3.49 | S 3.86 | D 4.51 | Y 3.73 | T 3.18 | M 3.24 | A 3.84 | L 3.46 | V 2.05 | N 4.09 | I 3.03 | K 3.5 | C 3.09 | H 5.06 | R 3.88 | Q 4.11
I16: W 3.16 | R 2.71 | K 3.23 | F 3.83 | D 4.71 | M 3.45 | A 3.54 | Y 3.02 | H 4.39 | C 4.33 | T 3.82 | L 3.01 | Q 3.9 | P 3.97 | V 3.81 | E 4.77 | G 4.1 | N 3.71 | S 3.72

Variants of: B2
Test: as above
Details: c terminus: a fixed tail appended

Protein stability index, by site and new letter:
K24: T 2.69 | R 3.06 | S 2.94 | P 3.26 | N 3.21 | W 1.93 | Y 2.01 | Q 3.4 | V 2.09 | M 2.36
